Data from patent publication US20240018502A1.

Biological target: plasma purified human complement protein C3 (human) (UniProt P01024)
Assay: cell-based or functional assay

Sequence of plasma purified human complement protein C3 (human) (P01024 23-667, chain 1 of 2): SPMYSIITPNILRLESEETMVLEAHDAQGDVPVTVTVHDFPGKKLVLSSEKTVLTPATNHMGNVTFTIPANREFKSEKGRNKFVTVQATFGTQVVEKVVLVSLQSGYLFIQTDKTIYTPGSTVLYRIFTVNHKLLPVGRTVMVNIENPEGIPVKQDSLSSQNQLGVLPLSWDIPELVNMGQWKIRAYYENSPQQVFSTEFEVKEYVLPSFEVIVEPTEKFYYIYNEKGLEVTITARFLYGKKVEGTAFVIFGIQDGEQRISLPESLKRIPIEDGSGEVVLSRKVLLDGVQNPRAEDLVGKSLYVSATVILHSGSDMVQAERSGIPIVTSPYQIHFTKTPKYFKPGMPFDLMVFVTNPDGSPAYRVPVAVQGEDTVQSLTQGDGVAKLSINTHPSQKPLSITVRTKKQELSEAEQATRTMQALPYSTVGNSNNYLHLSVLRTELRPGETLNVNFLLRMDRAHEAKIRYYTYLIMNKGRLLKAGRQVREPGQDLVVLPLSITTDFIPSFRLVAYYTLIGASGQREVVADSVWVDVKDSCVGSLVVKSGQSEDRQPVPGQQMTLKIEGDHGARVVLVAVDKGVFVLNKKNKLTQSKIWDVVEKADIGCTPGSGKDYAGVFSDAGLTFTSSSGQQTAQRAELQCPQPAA
Sequence of plasma purified human complement protein C3 (human) (P01024 672-1663, chain 2 of 2): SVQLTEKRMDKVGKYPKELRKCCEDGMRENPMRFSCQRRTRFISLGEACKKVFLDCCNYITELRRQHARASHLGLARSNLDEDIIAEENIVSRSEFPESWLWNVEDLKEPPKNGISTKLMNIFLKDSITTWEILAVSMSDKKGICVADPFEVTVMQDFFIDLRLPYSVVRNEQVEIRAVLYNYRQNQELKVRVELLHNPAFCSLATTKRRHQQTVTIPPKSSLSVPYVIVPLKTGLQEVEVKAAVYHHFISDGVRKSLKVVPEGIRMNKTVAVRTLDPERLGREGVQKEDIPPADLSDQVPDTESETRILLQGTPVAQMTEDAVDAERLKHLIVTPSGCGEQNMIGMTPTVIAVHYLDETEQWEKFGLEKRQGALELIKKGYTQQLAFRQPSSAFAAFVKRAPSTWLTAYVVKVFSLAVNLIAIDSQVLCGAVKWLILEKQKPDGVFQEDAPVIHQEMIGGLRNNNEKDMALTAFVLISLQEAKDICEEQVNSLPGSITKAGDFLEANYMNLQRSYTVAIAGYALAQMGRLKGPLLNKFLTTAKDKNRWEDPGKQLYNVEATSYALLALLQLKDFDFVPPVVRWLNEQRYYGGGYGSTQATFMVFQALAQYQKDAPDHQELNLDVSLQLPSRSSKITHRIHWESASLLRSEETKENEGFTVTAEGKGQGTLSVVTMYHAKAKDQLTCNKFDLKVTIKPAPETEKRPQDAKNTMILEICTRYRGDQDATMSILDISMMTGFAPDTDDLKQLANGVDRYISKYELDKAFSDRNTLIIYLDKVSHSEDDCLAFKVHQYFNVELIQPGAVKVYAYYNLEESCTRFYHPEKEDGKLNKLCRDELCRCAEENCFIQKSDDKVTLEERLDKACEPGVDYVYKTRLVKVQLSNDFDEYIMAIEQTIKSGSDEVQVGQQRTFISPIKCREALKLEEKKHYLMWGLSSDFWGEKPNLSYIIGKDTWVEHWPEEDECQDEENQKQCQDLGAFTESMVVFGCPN

B1: MTSP-1 H40R/I41H/F97D/F99L/C122S/G151N/Q192N/D217L/K224R (enzyme)
chain: VVGGTDADEGEWPWQVSLHALGQGRHCGASLISPNWLVSAAHCYIDDRGFRYSDPTQWTAFLGLHDQSQRSAPGVQERRLKRIISHPFFNDDTLDYDIALLELEKPAEYSSMVRPISLPDASHVFPAGKAIWVTGWGHTQYGGTNALILQKGEIRVINQTTCENLLPQQITPRMMCVGFLSGGVDSCNGDSGGPLSSVEADGRIFQAGVVSWGLGCAQRNRPGVYTRLPLFRDWIKENTGV
EC50 of hC3 cleavage: 346 nM

B2: MTSP-1 H40R/I41H/F97D/F99L/C122S/G151N/Q192H/D217K/K224A (enzyme)
chain: VVGGTDADEGEWPWQVSLHALGQGRHCGASLISPNWLVSAAHCYIDDRGFRYSDPTQWTAFLGLHDQSQRSAPGVQERRLKRIISHPFFNDDTLDYDIALLELEKPAEYSSMVRPISLPDASHVFPAGKAIWVTGWGHTQYGGTNALILQKGEIRVINQTTCENLLPQQITPRMMCVGFLSGGVDSCHGDSGGPLSSVEADGRIFQAGVVSWGKGCAQRNAPGVYTRLPLFRDWIKENTGV
EC50 of hC3 cleavage: 137 nM

B3: MTSP-1 ins97aV/F97D/T98P/F99L/C122S/Q192G (enzyme)
chain: VVGGTDADEGEWPWQVSLHALGQGHICGASLISPNWLVSAAHCYIDDRGFRYSDPTQWTAFLGLHDQSQRSAPGVQERRLKRIISHPFFNDDVPLDYDIALLELEKPAEYSSMVRPISLPDASHVFPAGKAIWVTGWGHTQYGGTGALILQKGEIRVINQTTCENLLPQQITPRMMCVGFLSGGVDSCGGDSGGPLSSVEADGRIFQAGVVSWGDGCAQRNKPGVYTRLPLFRDWIKENTGV
EC50 of hC3 cleavage: 53.5 nM

B4: MTSP-1 F97N/ins97aT/T98Y/F99N/C122S (enzyme)
chain: VVGGTDADEGEWPWQVSLHALGQGHICGASLISPNWLVSAAHCYIDDRGFRYSDPTQWTAFLGLHDQSQRSAPGVQERRLKRIISHPFFNDNTYNDYDIALLELEKPAEYSSMVRPISLPDASHVFPAGKAIWVTGWGHTQYGGTGALILQKGEIRVINQTTCENLLPQQITPRMMCVGFLSGGVDSCQGDSGGPLSSVEADGRIFQAGVVSWGDGCAQRNKPGVYTRLPLFRDWIKENTGV
EC50 of hC3 cleavage: 184 nM

B5: MTSP-1 F97M/ins97aD/T98D/F99L/C122S/Q192T (enzyme)
chain: VVGGTDADEGEWPWQVSLHALGQGHICGASLISPNWLVSAAHCYIDDRGFRYSDPTQWTAFLGLHDQSQRSAPGVQERRLKRIISHPFFNDMDDLDYDIALLELEKPAEYSSMVRPISLPDASHVFPAGKAIWVTGWGHTQYGGTGALILQKGEIRVINQTTCENLLPQQITPRMMCVGFLSGGVDSCTGDSGGPLSSVEADGRIFQAGVVSWGDGCAQRNKPGVYTRLPLFRDWIKENTGV
EC50 of hC3 cleavage: 151 nM

B6: MTSP-1 ins97aV/F97Q/T98P/F99L/C122S/Q175F/Q192D (enzyme)
chain: VVGGTDADEGEWPWQVSLHALGQGHICGASLISPNWLVSAAHCYIDDRGFRYSDPTQWTAFLGLHDQSQRSAPGVQERRLKRIISHPFFNDQVPLDYDIALLELEKPAEYSSMVRPISLPDASHVFPAGKAIWVTGWGHTQYGGTGALILQKGEIRVINQTTCENLLPQFITPRMMCVGFLSGGVDSCDGDSGGPLSSVEADGRIFQAGVVSWGDGCAQRNKPGVYTRLPLFRDWIKENTGV
EC50 of hC3 cleavage: 248 nM

B7: MTSP-1 ins97aD/F97T/T98S/F99L/C122S/Q192E/D217Y/K224R (enzyme)
chain: VVGGTDADEGEWPWQVSLHALGQGHICGASLISPNWLVSAAHCYIDDRGFRYSDPTQWTAFLGLHDQSQRSAPGVQERRLKRIISHPFFNDTDSLDYDIALLELEKPAEYSSMVRPISLPDASHVFPAGKAIWVTGWGHTQYGGTGALILQKGEIRVINQTTCENLLPQQITPRMMCVGFLSGGVDSCEGDSGGPLSSVEADGRIFQAGVVSWGYGCAQRNRPGVYTRLPLFRDWIKENTGV
EC50 of hC3 cleavage: 5000 nM

B8: MTSP-1 ins97aN/F97H/T98D/F99L/C122S/Q192E/D217Q/K224S (enzyme)
chain: VVGGTDADEGEWPWQVSLHALGQGHICGASLISPNWLVSAAHCYIDDRGFRYSDPTQWTAFLGLHDQSQRSAPGVQERRLKRIISHPFFNDHNDLDYDIALLELEKPAEYSSMVRPISLPDASHVFPAGKAIWVTGWGHTQYGGTGALILQKGEIRVINQTTCENLLPQQITPRMMCVGFLSGGVDSCEGDSGGPLSSVEADGRIFQAGVVSWGQGCAQRNSPGVYTRLPLFRDWIKENTGV
EC50 of hC3 cleavage: 2750 nM

B9: MTSP-1 F97Q/ins97aT/T98M/C122S/Q192E/D217R/K224L (enzyme)
chain: VVGGTDADEGEWPWQVSLHALGQGHICGASLISPNWLVSAAHCYIDDRGFRYSDPTQWTAFLGLHDQSQRSAPGVQERRLKRIISHPFFNDQTMFDYDIALLELEKPAEYSSMVRPISLPDASHVFPAGKAIWVTGWGHTQYGGTGALILQKGEIRVINQTTCENLLPQQITPRMMCVGFLSGGVDSCEGDSGGPLSSVEADGRIFQAGVVSWGRGCAQRNLPGVYTRLPLFRDWIKENTGV
EC50 of hC3 cleavage: 2450 nM

B10: MTSP-1 ins97aD/F97Q/T98G/F99L/C122S/Q175L/Q192E/D217F/K224S (enzyme)
chain: VVGGTDADEGEWPWQVSLHALGQGHICGASLISPNWLVSAAHCYIDDRGFRYSDPTQWTAFLGLHDQSQRSAPGVQERRLKRIISHPFFNDQDGLDYDIALLELEKPAEYSSMVRPISLPDASHVFPAGKAIWVTGWGHTQYGGTGALILQKGEIRVINQTTCENLLPQLITPRMMCVGFLSGGVDSCEGDSGGPLSSVEADGRIFQAGVVSWGFGCAQRNSPGVYTRLPLFRDWIKENTGV
EC50 of hC3 cleavage: 5560 nM

B11: MTSP-1 ins97aD/F97G/T98N/F99L/C122S/Q192E/D217Y/K224R (enzyme)
chain: VVGGTDADEGEWPWQVSLHALGQGHICGASLISPNWLVSAAHCYIDDRGFRYSDPTQWTAFLGLHDQSQRSAPGVQERRLKRIISHPFFNDGDNLDYDIALLELEKPAEYSSMVRPISLPDASHVFPAGKAIWVTGWGHTQYGGTGALILQKGEIRVINQTTCENLLPQQITPRMMCVGFLSGGVDSCEGDSGGPLSSVEADGRIFQAGVVSWGYGCAQRNRPGVYTRLPLFRDWIKENTGV
EC50 of hC3 cleavage: 9870 nM

B12: MTSP-1 ins97aE/F97Y/T98S/F99L/C122S/Q192T/D217Q/K224R (enzyme)
chain: VVGGTDADEGEWPWQVSLHALGQGHICGASLISPNWLVSAAHCYIDDRGFRYSDPTQWTAFLGLHDQSQRSAPGVQERRLKRIISHPFFNDYESLDYDIALLELEKPAEYSSMVRPISLPDASHVFPAGKAIWVTGWGHTQYGGTGALILQKGEIRVINQTTCENLLPQQITPRMMCVGFLSGGVDSCTGDSGGPLSSVEADGRIFQAGVVSWGQGCAQRNRPGVYTRLPLFRDWIKENTGV
EC50 of hC3 cleavage: 249 nM

B13: MTSP-1 ins97aG/F97N/T98D/F99L/C122S/Q192E/D217H/K224A (enzyme)
chain: VVGGTDADEGEWPWQVSLHALGQGHICGASLISPNWLVSAAHCYIDDRGFRYSDPTQWTAFLGLHDQSQRSAPGVQERRLKRIISHPFFNDNGDLDYDIALLELEKPAEYSSMVRPISLPDASHVFPAGKAIWVTGWGHTQYGGTGALILQKGEIRVINQTTCENLLPQQITPRMMCVGFLSGGVDSCEGDSGGPLSSVEADGRIFQAGVVSWGHGCAQRNAPGVYTRLPLFRDWIKENTGV
EC50 of hC3 cleavage: 2790 nM

B14: MTSP-1 ins97aA/F97G/T98N/F99L/C122S/Q175M/Q192T/K224A (enzyme)
chain: VVGGTDADEGEWPWQVSLHALGQGHICGASLISPNWLVSAAHCYIDDRGFRYSDPTQWTAFLGLHDQSQRSAPGVQERRLKRIISHPFFNDGANLDYDIALLELEKPAEYSSMVRPISLPDASHVFPAGKAIWVTGWGHTQYGGTGALILQKGEIRVINQTTCENLLPQMITPRMMCVGFLSGGVDSCTGDSGGPLSSVEADGRIFQAGVVSWGDGCAQRNAPGVYTRLPLFRDWIKENTGV
EC50 of hC3 cleavage: 200 nM

B15: MTSP-1 I41R/ins97aE/F97T/T98G/F99L/C122S/G151N/Q175S/Q192D (enzyme)
chain: VVGGTDADEGEWPWQVSLHALGQGHRCGASLISPNWLVSAAHCYIDDRGFRYSDPTQWTAFLGLHDQSQRSAPGVQERRLKRIISHPFFNDTEGLDYDIALLELEKPAEYSSMVRPISLPDASHVFPAGKAIWVTGWGHTQYGGTNALILQKGEIRVINQTTCENLLPQSITPRMMCVGFLSGGVDSCDGDSGGPLSSVEADGRIFQAGVVSWGDGCAQRNKPGVYTRLPLFRDWIKENTGV
EC50 of hC3 cleavage: 2080 nM

B16: MTSP-1 I41R/F97T/ins97aE/T98G/F99L/C122S/G151N/Q175I/Q192D (enzyme)
chain: VVGGTDADEGEWPWQVSLHALGQGHRCGASLISPNWLVSAAHCYIDDRGFRYSDPTQWTAFLGLHDQSQRSAPGVQERRLKRIISHPFFNDTEGLDYDIALLELEKPAEYSSMVRPISLPDASHVFPAGKAIWVTGWGHTQYGGTNALILQKGEIRVINQTTCENLLPQIITPRMMCVGFLSGGVDSCDGDSGGPLSSVEADGRIFQAGVVSWGDGCAQRNKPGVYTRLPLFRDWIKENTGV
EC50 of hC3 cleavage: 8370 nM

B17: MTSP-1 I41R/F97T/ins97aE/T98G/F99L/C122S/G151D/Q175I/Q192E (enzyme)
chain: VVGGTDADEGEWPWQVSLHALGQGHRCGASLISPNWLVSAAHCYIDDRGFRYSDPTQWTAFLGLHDQSQRSAPGVQERRLKRIISHPFFNDTEGLDYDIALLELEKPAEYSSMVRPISLPDASHVFPAGKAIWVTGWGHTQYGGTDALILQKGEIRVINQTTCENLLPQIITPRMMCVGFLSGGVDSCEGDSGGPLSSVEADGRIFQAGVVSWGDGCAQRNKPGVYTRLPLFRDWIKENTGV
EC50 of hC3 cleavage: 2070 nM

B18: MTSP-1 I41R/ins97aE/F97T/T98G/F99L/C122S/G151D/Q175I/Q192D (enzyme)
chain: VVGGTDADEGEWPWQVSLHALGQGHRCGASLISPNWLVSAAHCYIDDRGFRYSDPTQWTAFLGLHDQSQRSAPGVQERRLKRIISHPFFNDTEGLDYDIALLELEKPAEYSSMVRPISLPDASHVFPAGKAIWVTGWGHTQYGGTDALILQKGEIRVINQTTCENLLPQIITPRMMCVGFLSGGVDSCDGDSGGPLSSVEADGRIFQAGVVSWGDGCAQRNKPGVYTRLPLFRDWIKENTGV
EC50 of hC3 cleavage: 1750 nM

B19: MTSP-1 S90T/D96A/ins97aE/F97T/T98G/F99L/C122S/Q175L/Q192D (enzyme)
chain: VVGGTDADEGEWPWQVSLHALGQGHICGASLISPNWLVSAAHCYIDDRGFRYSDPTQWTAFLGLHDQSQRSAPGVQERRLKRIITHPFFNATEGLDYDIALLELEKPAEYSSMVRPISLPDASHVFPAGKAIWVTGWGHTQYGGTGALILQKGEIRVINQTTCENLLPQLITPRMMCVGFLSGGVDSCDGDSGGPLSSVEADGRIFQAGVVSWGDGCAQRNKPGVYTRLPLFRDWIKENTGV
EC50 of hC3 cleavage: 280 nM

B20: MTSP-1 Y59F/ins97aE/F97T/T98G/F99L/C122S/Q175L/Q192E (enzyme)
chain: VVGGTDADEGEWPWQVSLHALGQGHICGASLISPNWLVSAAHCFIDDRGFRYSDPTQWTAFLGLHDQSQRSAPGVQERRLKRIISHPFFNDTEGLDYDIALLELEKPAEYSSMVRPISLPDASHVFPAGKAIWVTGWGHTQYGGTGALILQKGEIRVINQTTCENLLPQLITPRMMCVGFLSGGVDSCEGDSGGPLSSVEADGRIFQAGVVSWGDGCAQRNKPGVYTRLPLFRDWIKENTGV
EC50 of hC3 cleavage: 341 nM

B21: MTSP-1 ins97aE/F97T/T98G/F99L/C122S/Q175L/Q192E/Q209L (enzyme)
chain: VVGGTDADEGEWPWQVSLHALGQGHICGASLISPNWLVSAAHCYIDDRGFRYSDPTQWTAFLGLHDQSQRSAPGVQERRLKRIISHPFFNDTEGLDYDIALLELEKPAEYSSMVRPISLPDASHVFPAGKAIWVTGWGHTQYGGTGALILQKGEIRVINQTTCENLLPQLITPRMMCVGFLSGGVDSCEGDSGGPLSSVEADGRIFLAGVVSWGDGCAQRNKPGVYTRLPLFRDWIKENTGV
EC50 of hC3 cleavage: 383 nM
